{"source": "paper PMC9091222", "about": "(2022)", "binders": {"B1": {"name": "M4B06 IgG (antibody, V domains shown)", "VH": "EVQLLESGGGFVQPGGSLRLSCVVTGFTFSNYAMCWVRQAPGKGPEWVSGIGGSVGTTYYADSVKGRFTISRDNSKNTLYLQMSGLRAEDTARYYCAKVPSFFVFEDGFDMWGQGTVVTVSS", "VL": "QSVLTQPPSASGNPGQRVTISCYGSGSNIGNNYVHWFRQLPGTAPRLLIYNTDILVPGVPDRFSGSESGTSASLAISGLQSGDEADYFCAAWDDTLNGYVFGPGTTVTVL"}}, "molecular_target": "unprocessed hMPV PreF trimer (wild-type hMPV F ectodomain trimer, strain B2, C-terminal GCN4 trimerization … (human metapneumovirus, strain B2))", "assay": "ELISA"}
{"binder": "B1", "values": [{"measurement": "EC50", "value": 4.4, "unit": "ng/mL"}]}
